From patent publication US20240368279A1 (published 2024) come the findings set out here.

The target of assay [1] is 12283-H08H (human, UniProt Q08722 19-139). Briefly: SPR. On the technique in general: Surface plasmon resonance follows binding to a sensor surface in real time, without labels.
The target of assay [2] is human CD47 protein (antigen of the SPR affinity determination) (human, UniProt Q08722 19-139). Briefly: SPR.

B1: Hu004-68 (antibody, V domains shown)
VH: EVQLVESGGGLVQPGGSLRLSCAASGFTFSGYGMSWVRQAPGKGLEWVATITSGGTYTYYPDSVKGRFTISRDNAKNSLYLQMNSLRAEDTAVYYCARSLAGNAMDYWGQGTLVTVSS
VL: EIVLTQSPVTLSVSPGERATLSCRASQGVTSNLAWYQQKPGQAPRLLIYGASTRATGVPARFSGSGSGTEFTLTISSLQSEDFAVYYCQHRGTFGQGTKVDIK
Usually Kd stands for the free concentration of one partner at which half of the binding sites on the other are occupied at equilibrium, for simple one-to-one binding. Higher therefore signals weaker binding. On to B1, for which the Kd in assay [1] was determined as 222 nM.

B2: Hu004-73 antibody (full-length human IgG1, kappa) (antibody, V domains shown)
VH: EVQLVESGGGLVQPGGSLRLSCAASGFTFSGYGMSWVRQAPGKGLEWVATITSGGTYTYYPDSVKGRFTISRDNAKNSLYLQMNSLRAEDTAVYYCARSLAGNAMDYWGQGTLVTVSS
VL: DIQMTQSPSSLSASVGDRVTITCRAGQPLNNYLNWYQQKPGKPPRLLIYAASTLQSGVPSRFSGSGSGTDFTLTISGLQSEDFASYFCQHRVTFGPGTKVDVR
Take B2: the affinity in assay [2], expressed as Kd, was 184 nM. This counts as sub-micromolar.
